Data: patent publication US20180051068A1

Target: integrin β1 expressed by the β1AGD25 cell line
Assay: cell-based or functional assay

CalA-mCherry expressed in S. cerevisiae that co-expresses Candida albicans Als1
endocytosis of S. cerevisiae by β1AGD25 cells (differential fluorescence assay): 3 times
